Experimental data: patent US20130177579A1 (BIOALLIANCE C V, published 2013)

How the values were obtained:
[1] = biological target: T1, human transferrin receptor expressed by normal human cells (RBC, PMN, lymphocytes, monocytes, platelets, … (human, UniProt P02786 1-760)); experiment: FACS, lymphocytes, donor D014, 1/10x
T1 construct: The assay is whole-cell FACS on normal donor cells; also called TfR on normal cells
Description: (§1) Preparation of PBMC and PMN: The whole blood was diluted with an equal volume of PBS and mixed with 1/10 volume of 15% Dextran solution. […] After centrifugation at 2200 rpm for 15 min (rotor: SORVALL, PN11788 and centrifuge: SORVALL, RT7), PBMC concentrated in the interface, were collected and washed with large volumes of FACS buffer (2% FBS in PBS) for future use. The PMN-rich pellet was collected, from which residual RBC was removed by hypotonic lysis in 0.2% NaCl.
(§2) 1×10⁵ cells were seeded in each well of a v-bottomed 96-well plate and incubated with 50 μl of hybridoma culture supernatant at 1× and 10× dilution, or isotype control antibody mouse IgM, κ (BD™, Cat. No. 557275) at concentration of 1 μg/ml. A 300× dilution of human cell hyper-immune serum was used as binding positive control for all cell types. PE-conjugated anti-human CD41a (Southern Biotech™, Cat. No. 9391-09) was used as a positive control for staining human platelets. Anti-sialyl Lewis x antibody (Millipore™, Cat. No. MAB2096) was used as a positive control for staining human PMN. Anti-human CD31 (Hycult™, Cat. No. HM2039) was used as a positive control for staining HUVEC. After 30 minutes incubation at 4° C., cells were washed twice with 200 μl FACS buffer (1×PBS containing 1% FBS), stained with 50 μl of 1 μg/ml goat F(ab′)2-anti-mouse IgG(H+L)-PE (Southern Biotech™, Cat. No. 1032-09) or 1 μg/ml goat F(ab′)2-anti-mouse IgM(H+L)-PE (Southern Biotech™, Cat. No. 1022-09) in FACS buffer. After 30 minutes of incubation at 4° C., cells were washed twice with FACS buffer and analyzed by flow cytometry (BD LSR, BD Life Sciences).

[2] = biological target: T1, human transferrin receptor expressed by …; experiment: FACS, monocytes, donor D102, 1/10x
Description: (§3) The hyper-immuned serum (Hyp-serum) or the corresponding cell marker antibodies for certain cell types were included as positive controls.
as §2

[3] = biological target: T1, human transferrin receptor expressed by …; experiment: FACS, platelets, donor D102, 1x
Description: as §3, §2

[4] = biological target: human transferrin receptor expressed by nonhematopoietic cancer cells (human) (UniProt P02786); experiment: FACS, Panc02.03B cells, 1/5X
[5] = biological target: T1, human transferrin receptor expressed by …; experiment: FACS, RBC, donor D014, 1/10x
Description: as §3, §2

[6] = biological target: human transferrin receptor expressed by nonhematopoietic cancer cells (human) (UniProt P02786); experiment: cell-based or functional assay
[7] = biological target: T1, human transferrin receptor expressed by …; experiment: FACS, RBC, donor D005, 1/10x
Description: as §3, §2

[8] = biological target: human transferrin receptor expressed by nonhematopoietic cancer cells (human) (UniProt P02786); experiment: FACS, H358 cells, 1/10X
[9] = biological target: T1, human transferrin receptor expressed by …; experiment: FACS, HUVEC, 1/10x
Description: as §3, §2

[10] = biological target: T1, human transferrin receptor expressed by …; experiment: FACS, platelets, donor D014, 1/10x
Description: as §3, §2

[11] = biological target: human transferrin receptor expressed by nonhematopoietic cancer cells (human) (UniProt P02786); experiment: FACS, HEC-1-A cells, 1/5X
[12] = biological target: T1, human transferrin receptor expressed by …; experiment: FACS, lymphocytes, donor D014, 1x
Description: as §1, §2

[13] = biological target: human transferrin receptor expressed by nonhematopoietic cancer cells (human) (UniProt P02786); experiment: FACS, DLD-1 cells, 1/5X
[14] = biological target: T1, human transferrin receptor expressed by …; experiment: FACS, monocytes, donor D016, 1x
Description: as §3, §2

[15] = biological target: T1, human transferrin receptor expressed by …; experiment: FACS, monocytes, donor D102, 1x
Description: as §1, §2

[16] = biological target: T1, human transferrin receptor expressed by …; experiment: FACS, PMN, donor D016, 1/10x
Description: as §1, §2

[17] = biological target: T1, human transferrin receptor expressed by …; experiment: FACS, PMN, donor D014, 1x
Description: as §3, §2

[18] = biological target: T1, human transferrin receptor expressed by …; experiment: FACS, monocytes, donor D014, 1x
Description: as §3, §2

[19] = biological target: T1, human transferrin receptor expressed by …; experiment: FACS, platelets, donor D005, 1/10x
Description: as §3, §2

T1 sequence (P02786 whole entry G142S): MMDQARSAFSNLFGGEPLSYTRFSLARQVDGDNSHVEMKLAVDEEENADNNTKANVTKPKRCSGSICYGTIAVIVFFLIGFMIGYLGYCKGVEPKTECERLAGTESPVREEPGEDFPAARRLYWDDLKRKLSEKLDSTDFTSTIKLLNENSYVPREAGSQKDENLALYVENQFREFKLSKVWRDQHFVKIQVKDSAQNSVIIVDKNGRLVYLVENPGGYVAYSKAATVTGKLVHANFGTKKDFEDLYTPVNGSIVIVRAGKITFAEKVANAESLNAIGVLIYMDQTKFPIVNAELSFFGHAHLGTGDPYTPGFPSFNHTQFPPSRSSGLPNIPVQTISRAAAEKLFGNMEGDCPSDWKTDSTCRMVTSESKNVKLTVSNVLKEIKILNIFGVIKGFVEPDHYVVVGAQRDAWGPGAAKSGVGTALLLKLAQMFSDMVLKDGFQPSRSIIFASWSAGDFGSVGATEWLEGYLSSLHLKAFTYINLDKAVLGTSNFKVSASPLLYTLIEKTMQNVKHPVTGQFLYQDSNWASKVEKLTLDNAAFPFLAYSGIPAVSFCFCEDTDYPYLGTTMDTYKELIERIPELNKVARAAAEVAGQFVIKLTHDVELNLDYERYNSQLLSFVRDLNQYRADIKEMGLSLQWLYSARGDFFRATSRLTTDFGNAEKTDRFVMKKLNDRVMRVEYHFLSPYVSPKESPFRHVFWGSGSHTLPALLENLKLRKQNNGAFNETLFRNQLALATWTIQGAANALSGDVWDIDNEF
Sequence of human transferrin receptor expressed by nonhematopoietic cancer cells (human) (P02786 whole entry G142S): as above

B1: antibody 6-90 (antibody, mouse IgM, V domains shown)
VH: EVELQQFGIEMVKPGASVKISCKASGYIFTDYHMDWVRQSHGKSLEWIGDIDPKYDRVTYNQKFKGKASLTADKSSSTAYMELRSLTSEDTAVYYCAKTGAYGDYLAYWGQGTLVTVSA
VL: DLVMTQTPLSLPVSLGDQASISCRSSQSLVHSDGNTYFYWYLQKPGQSPKLLIYKVSNRFSGVPDRFSAGGSGTYFTLKISRVEAEDLGVYFCSQTTHFPPTFGGGTKLEIKR
notes: Mouse IgM, kappa from a hybridoma; tested as hybridoma culture supernatant
% positive cell binding [1]: 1% | % positive cell binding [2]: 2% | % positive cell binding [3]: < 1% | MFI [4]: 4910 MFI | % positive cell binding [5]: < 1% | percentage of Annexin V positive and/or PI positive cells; COLO205; 1/2X (IgM 19.1) [6]: 50.9% | percentage of Annexin V positive and/or PI positive cells; COLO205; 1/6X (IgM 19.1) [6]: 42.2% | percentage of Annexin V positive and/or PI positive cells; COLO205; 1/18X (IgM 19.1) [6]: 22.9% | percentage of Annexin V positive and/or PI positive cells; DLD1; 1/2X (IgM 24.3) [6]: 50.6% | percentage of Annexin V positive and/or PI positive cells; DLD1; 1/6X (IgM 24.3) [6]: 42.3% | percentage of Annexin V positive and/or PI positive cells; DLD1; 1/18X (IgM 24.3) [6]: 38.9% | percentage of Annexin V positive and/or PI positive cells; H358; 1/2X (IgM 31.8) [6]: 50.7% | percentage of Annexin V positive and/or PI positive cells; H358; 1/6X (IgM 31.8) [6]: 49% | percentage of Annexin V positive and/or PI positive cells; H358; 1/18X (IgM 31.8) [6]: 46.9% | percentage of Annexin V positive and/or PI positive cells; Panc 02.03B; 1/2X (IgM 19.0) [6]: 46.7% | percentage of Annexin V positive and/or PI positive cells; Panc 02.03B; 1/6X (IgM 19.0) [6]: 28.7% | percentage of Annexin V positive and/or PI positive cells; Panc 02.03B; 1/18X (IgM 19.0) [6]: 24.5% | percentage of Annexin V positive and/or PI positive cells; SNU-16; 1/2X (IgM 30.0) [6]: 40.2% | percentage of Annexin V positive and/or PI positive cells; SNU-16; 1/6X (IgM 30.0) [6]: 37.2% | percentage of Annexin V positive and/or PI positive cells; SNU-16; 1/18X (IgM 30.0) [6]: 34.8% | % positive cell binding [7]: < 1% | MFI [8]: 1600 MFI | % positive cell binding [9]: 1% | % positive cell binding [10]: < 1% | MFI [11]: 11 MFI | % positive cell binding [12]: 1% | MFI [13]: 3900 MFI | % positive cell binding [14]: < 1% | % positive cell binding [15]: 2% | % positive cell binding [16]: < 1% | % positive cell binding [17]: < 1% | % positive cell binding [18]: < 1% | % positive cell binding [19]: < 1%

B2: antibody 55-31 (antibody, mouse IgM, V domains shown)
VH: QVQLQQPGAELVKPGTSVKLSCKASGYNFTSYWINWVKLRPGQGLEWIGDIYPGSGSTNYNEKFKSKATLTVDTSSSTAYMQLSSLASEDSALYYCARSAYRYDWFAYWGQGTLVTVSA
VL: DIQMTQSPASLSVSVGETVTITCRASENIYSNLAWYQQKQGKSPQLLVYAATNLADGVPSRFSGSGSGTQYSLKINSLQSEDFGSYYCQHFWGTPYTFGGGTKLEIKR
notes: as for B1
% positive cell binding [1]: 1% | % positive cell binding [2]: 1% | % positive cell binding [3]: < 1% | MFI [4]: 314 MFI | % positive cell binding [5]: 1% | percentage of Annexin V positive and/or PI positive cells; DU145; 1/2X (IgM 19.5) [6]: 31% | percentage of Annexin V positive and/or PI positive cells; DU145; 1/6X (IgM 19.5) [6]: 35.4% | percentage of Annexin V positive and/or PI positive cells; DU145; 1/18X (IgM 19.5) [6]: 23.6% | % positive cell binding [7]: < 1% | MFI [8]: 295 MFI | % positive cell binding [9]: 3% | % positive cell binding [10]: < 1% | MFI [11]: 1240 MFI | % positive cell binding [12]: 1% | MFI [13]: 104 MFI | % positive cell binding [14]: 1% | % positive cell binding [15]: 3% | % positive cell binding [16]: < 1% | % positive cell binding [17]: < 1% | % positive cell binding [18]: < 1% | % positive cell binding [19]: < 1%

B3: antibody 122-72 (antibody, V domains shown)
VH: EVQLVESGGGLVQPKGSLKLSCAASGFTFNTYAMNWVRQAPGKGLEWVARIRSKSNNYATYYADSVKDRFTISRDDSQSMLYLQMNNLKTEDTAMYYCVAYGSRNYWGQGTTLTVSS
VL: DIVMTQSPSSLTVTAGEKVTMSCKSSQSLLNSGNQKNYLTWYQQKPGQPPKLLIYWASTRESGVPDRFTGSGSGTDFTLTISSVQAEDLAVYYCQNDYSYPYTFGGGTKLEIKR
notes: Mouse IgM, kappa from a hybridoma; tested as hybridoma culture supernatant; Antibody 60-43 is said to have the same CDRs
% positive cell binding [1]: 1% | % positive cell binding [2]: 4% | % positive cell binding [3]: < 1% | MFI [4]: 4670 MFI | % positive cell binding [5]: 1% | percentage of Annexin V positive and/or PI positive cells; COLO205; 1/2X (IgM 19.1) [6]: 80.3% | percentage of Annexin V positive and/or PI positive cells; COLO205; 1/6X (IgM 19.1) [6]: 25.2% | percentage of Annexin V positive and/or PI positive cells; COLO205; 1/18X (IgM 19.1) [6]: 18.6% | percentage of Annexin V positive and/or PI positive cells; DLD1; 1/2X (IgM 24.3) [6]: 42.2% | percentage of Annexin V positive and/or PI positive cells; DLD1; 1/6X (IgM 24.3) [6]: 38.6% | percentage of Annexin V positive and/or PI positive cells; DLD1; 1/18X (IgM 24.3) [6]: 37.1% | percentage of Annexin V positive and/or PI positive cells; H358; 1/2X (IgM 31.8) [6]: 70.8% | percentage of Annexin V positive and/or PI positive cells; H358; 1/6X (IgM 31.8) [6]: 70.1% | percentage of Annexin V positive and/or PI positive cells; H358; 1/18X (IgM 31.8) [6]: 63.9% | percentage of Annexin V positive and/or PI positive cells; Pan 02.03B; 1/2X (IgM 16.9) [6]: 31.5% | percentage of Annexin V positive and/or PI positive cells; Pan 02.03B; 1/6X (IgM 16.9) [6]: 20.5% | percentage of Annexin V positive and/or PI positive cells; Pan 02.03B; 1/18X (IgM 16.9) [6]: 20.5% | percentage of Annexin V positive and/or PI positive cells; SNU-16; 1/2X (IgM 30.0) [6]: 46.6% | percentage of Annexin V positive and/or PI positive cells; SNU-16; 1/6X (IgM 30.0) [6]: 43.5% | percentage of Annexin V positive and/or PI positive cells; SNU-16; 1/18X (IgM 30.0) [6]: 36.6% | percentage of Annexin V positive and/or PI positive cells; SU.86.86; 1/2X (IgM 12.1) [6]: 41.3% | percentage of Annexin V positive and/or PI positive cells; SU.86.86; 1/6X (IgM 12.1) [6]: 29.3% | percentage of Annexin V positive and/or PI positive cells; SU.86.86; 1/18X (IgM 12.1) [6]: 23.4% | % positive cell binding [7]: < 1% | MFI [8]: 2460 MFI | % positive cell binding [9]: 1% | % positive cell binding [10]: < 1% | MFI [11]: 15 MFI | % positive cell binding [12]: < 1% | MFI [13]: 2690 MFI | % positive cell binding [14]: < 1% | % positive cell binding [15]: 1% | % positive cell binding [16]: 1% | % positive cell binding [17]: 1% | % positive cell binding [18]: < 1% | % positive cell binding [19]: < 1%
